Patent publication US20220251157A1 (MAYO FOUNDATION FOR MEDICAL EDUCATION AND RESEARCH, published 2022)
Positions of bridges follow the written chain, without caps; N, C: chain ends. No end group written: not given here.

Experiments:
[1] = target: T1, 12p4 (disulfide 1-9; also: displayed on phage); experiment: phage display panning (Ph.D.-C7C) on immobilized antibody, bound phage eluted; 1x clone
T1 construct: one clone only
T1 peptide: CARNSTPPC
Description: (§1) A phage display system (Ph.D.-C7C Peptide Library Kit, New England Biolabs) was used to select 7-mer peptides in a cysteine loop for either hIgM12 or hIgM22. Briefly, a random peptide bacteriophage library was panned against immobilized antibody. Unbound bacteriophage was washed away, and bound bacteriophage was eluted, regrown and re-panned against the antibody. Multiple (three to seven) rounds of panning led to development of a peptide consensus sequence for each antibody. Two similar consensus sequences were identified for hIgM22, while one consensus sequence was identified for hIgM12 (Table 1).

[2] = target: T2, 12p9a (disulfide 1-9; also: displayed on phage); experiment: phage display panning (Ph.D.-C7C) on immobilized antibody, bound phage eluted; 11x clones
T2 peptide: CHQTEKLTC
Description: as §1

B1: B7-DC XAb (antibody)
light: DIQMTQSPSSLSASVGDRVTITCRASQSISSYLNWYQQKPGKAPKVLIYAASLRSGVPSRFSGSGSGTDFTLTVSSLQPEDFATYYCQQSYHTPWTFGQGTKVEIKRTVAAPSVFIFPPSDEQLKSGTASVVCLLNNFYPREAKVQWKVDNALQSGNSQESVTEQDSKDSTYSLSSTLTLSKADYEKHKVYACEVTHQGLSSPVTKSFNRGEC
heavy: QVQLQESGPGLLKPSETLSLTCTVSGGSVSLYYWSWIRQSPGKEPEWIGYIYSSGSTDYNPSLRSRVTISLDTSNNRFSLNLRSVTAADTAVYWCARSASIRGWFDPWGQGTLVTVSSGSASAPTLFPLVSCENSPSDTSSVAVGCLAQDFLPDSITFSWKYKNNSDISSTRGFPSVLRGGKYAATSQVLLPSKDVMQGTDEHVVCKVQHPNGNKEKNVPLPVIAELPPKVSVFVPPRDGFFGNPRKSKLICQATGFSPRQIQVSWLREGKQVGSGVTTDQVQAEAKESGPTTYKVTSTLTIKESDWLSQSMFTCRVDHRGLTFQQNASSMCVPDQDTAIRVFAIPPSFASIFLTKSTKLTCLVTDLTTYDSVTISWTRQNGEAVKTHTNISESHPNATFSAVGEASICEDDWNSGERFTCTVTHTDLPSPLKQTISRPKGVALHRPDVYLLPPAREQLNLRESATITCLVTGFSPADVFVQWMQRGQPLSPEKYVTSAPMPEPQAPGRYFAHSILTVSEEEWNTGETYTCVVAHEALPNRVTERTVDKSTGKPTLYNVSLVMSDTAGTCY
notes: Human monoclonal IgM from a Waldenstrom's macroglobulinemia patient; J chain not described; Used at 10 ug/ml; also called hIgM12; sHIgM12
- binding result [1]: binds
- binding result [2]: binds
